Measured values: the supplement of paper PMC10567573
± gives the standard deviation.

Test: protein stability index of a GFP-peptide fusion (GPS, HEK-293T) (PSI 1-6); higher = more stable
[1] = treatment: DMSO, c terminus: a fixed tail appended
[2] = treatment: MLN4924 1 uM, 8 h, c terminus: a fixed tail appended
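Further: 24-mer peptide tiles fused after GFP, lentivirally expressed, FACS-sorted into six equal bins by GFP/DsRed ratio, decoded by Illumina sequencing, PSI is the read-weighted mean bin number.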

Sequence	protein stability index [1]	protein stability index [2]	protein stability index (treatment: DMSO, c terminus: native)	protein stability index (treatment: MLN4924 1 uM, 8 h, c terminus: native)
LLLLLLTFFLRTDAETPPRFTRTP [PTPRD]	2.32 ± 0.43	2.36 ± 0.49		
LLPTKSLVALKCTCCYFKFIIEYY [FBXO34]	2.8 ± 0.59	2.83 ± 0.88		
LLQRELAQEDSLNKLALQYGCKVA [LYSMD4]	2.21 ± 0.34	2.52 ± 0.57		
LLRDRTGQQSDTAQLELYQLQVES [SCARA5]	4.42 ± 0.37	4.56 ± 0.13		
LMKESLQTGDLLSTFHTISPSFQL [PLAGL1]	2.24 ± 0.13	2.17 ± 0.16		
LMKGGADLFVENMPGFPDNIRPSS [APMAP]	3.66 ± 0.1	3.77 ± 0.33		
LNPHVHLVGDDAACIAYIRLTQYM [CAMK2D]	2.32 ± 0.38	2.29 ± 0.66		
LNVFQTVSRMRTQRAFSIQTPEQY [PTPN9]	2.38 ± 0.33	2.54 ± 0.31		
LPLSPGVLSSTPDHSFSLELGSEV [ATF4]	3.72 ± 0.21	3.95 ± 0.5		
LPPCAVRNLQDLARIYIRRTLRNF [PCMTD1]	2.06 ± 0.29	2.04 ± 0.26		
LPSLGCRTSCSSRPCVPPSCHGYT [KRT34]	2.32 ± 0.26	2.2 ± 0.11		
LQDVIMQVADVPEKPRVPAFACQV [ZNF511]	2.37 ± 0.28	2.69 ± 0.21		
LRDGGGLTPLELLLRQLGRDAGAT [ANKRD9]	2.79 ± 0.34	2.58 ± 0.27		
LRGLPGERGTPGLPGPKGDDGKLG [SCARA5]	4.96 ± 0.33	4.96 ± 0.19		
LRKHRELCDVVLVVGAKKIYAHRV [KLHL20]	2.67 ± 0.5	2.3 ± 0.43		
LRLENSSLFSQALKDEEAKVLQLT [CCDC89]	3.6 ± 0.41	3.62 ± 0.61		
LRPQVVTDDDGQAPEAKDGSSFSG [APMAP]	5.22 ± 0.26	5.31 ± 0.15		
LRSARGSRGGTRGWLPSHEGHLDD [RBMY1A1]	4.7 ± 0.35	4.78 ± 0.17		
LSASQKALKEKEKASWSSLSMDEK [COX4I1]	4.61 ± 0.28	4.84 ± 0.22		
LSCLGQQQQEPPLAMGTVSLGQLP [PLAGL1]	3.75 ± 0.32	3.59 ± 0.5		
LSDLEDLEEEEEEEEEAEDEEVVA [IRX6]	5.63 ± 0.23	5.81 ± 0.077		
LSLESSPDAPDHTSETSHSPLYAD [PLEKHN1]	5.47 ± 0.16	5.38 ± 0.24		
LSSVPSEAQISDPFAPEPTPPTTT [SNAP91]	5.38 ± 0.079	5.3 ± 0.2		

Sequence	protein stability index [1]	protein stability index [2]	protein stability index (treatment: DMSO, c terminus: native)	protein stability index (treatment: MLN4924 1 uM, 8 h, c terminus: native)
LSTIEELIKDAIVSTQPAMMVNLR [C2CD2L]	2.2 ± 0.29	2.35 ± 0.17		
LSTLAGIRVMVHGRNHTPFLGHHS [SCNN1D]	2.69 ± 0.28	2.64 ± 0.23		
LTASGDGTCALWDVESGQLLQSFH [GNB5]	2.67 ± 0.36	2.76 ± 0.24		
LTASRQSFRMAMGNPSEFFVDVM [DVL3]			2.41 ± 0.65	2.54 ± 0.85
LTCDALTELLAKITNTDVDCLKAC [CCND2]	2.37 ± 0.28	2.34 ± 0.27		
LTDAVAPGNKGRGQRGNTESKTDG [TCF25]	5.5 ± 0.27	5.48 ± 0.45		
LTDAYGPPSNFLEIDIFNPQTVGV [SNX12]	2.87 ± 0.39	3.19 ± 0.39		
LTEHQRIHTGIKPHQCSECGRAFS [ZNF649]	3.58 ± 0.064	3.69 ± 0.38		
LTFHRHPVAQSTDGIRGKVGHARG [SPSB4]	3.99 ± 0.32	3.97 ± 0.26		
LTVLQRLDVWLSGGNDLCVWNRKL [WDR41]	2.17 ± 1	2.39 ± 0.32		
LVALAEQHAVQELTKAATSGVGID [RHOBTB1]	4.08 ± 0.29	4.18 ± 0.19		
LVEDMVSQEEAQGLPSSELDAVEN [ZNF24]	5.5 ± 0.48	5.43 ± 0.15		
LVGDDAACIAYIRLTQYMDGSGMP [CAMK2D]	2.13 ± 0.91	1.66 ± 0.13		
LVKHKRIHSREKRGDSVKVENPST [ZNF649]	4.41 ± 0.32	4.54 ± 0.48		
LVTIARKASLWQFLSSEKQICGTH [TRIM43]	2.06 ± 0.34	2.17 ± 0.45		
LVTQQLPHLMPSNCGLEEKIANLG [S100A14]	2.43 ± 0.68	3.05 ± 0.55		
LVVALDVDATLEHVQDPQNTVKVQ [INTS4]	3.03 ± 0.14	3.21 ± 0.2		
LWDRAYVRLKPALQRLDFSVRGYM [RETREG3]	2.5 ± 0.43	2.69 ± 0.65		
LWRYRTITFSGRPSRVHASEVESA [FBXO39]	2.79 ± 0.27	3 ± 0.33		
LWVQGDIFRSKLKNRPSSEGSINK [CDC14A]	2.62 ± 0.19	2.92 ± 0.62		
LYAKMIQKLADLRSLNEEHSKQYR [VDR]	2.15 ± 0.41	2.19 ± 0.22		
LYGFLLTFGFITMTPQLFINYKLK [CLPTM1]	3.12 ± 0.64	3.44 ± 0.32		
